From US20250277199, “NOVEL CRISPR-CAS NUCLEASES FROM METAGENOMES” (Brain Biotech AG, published 2025)

Biological target: T1, BMC13 (uncultured bacterium (metagenome))
T1 chain: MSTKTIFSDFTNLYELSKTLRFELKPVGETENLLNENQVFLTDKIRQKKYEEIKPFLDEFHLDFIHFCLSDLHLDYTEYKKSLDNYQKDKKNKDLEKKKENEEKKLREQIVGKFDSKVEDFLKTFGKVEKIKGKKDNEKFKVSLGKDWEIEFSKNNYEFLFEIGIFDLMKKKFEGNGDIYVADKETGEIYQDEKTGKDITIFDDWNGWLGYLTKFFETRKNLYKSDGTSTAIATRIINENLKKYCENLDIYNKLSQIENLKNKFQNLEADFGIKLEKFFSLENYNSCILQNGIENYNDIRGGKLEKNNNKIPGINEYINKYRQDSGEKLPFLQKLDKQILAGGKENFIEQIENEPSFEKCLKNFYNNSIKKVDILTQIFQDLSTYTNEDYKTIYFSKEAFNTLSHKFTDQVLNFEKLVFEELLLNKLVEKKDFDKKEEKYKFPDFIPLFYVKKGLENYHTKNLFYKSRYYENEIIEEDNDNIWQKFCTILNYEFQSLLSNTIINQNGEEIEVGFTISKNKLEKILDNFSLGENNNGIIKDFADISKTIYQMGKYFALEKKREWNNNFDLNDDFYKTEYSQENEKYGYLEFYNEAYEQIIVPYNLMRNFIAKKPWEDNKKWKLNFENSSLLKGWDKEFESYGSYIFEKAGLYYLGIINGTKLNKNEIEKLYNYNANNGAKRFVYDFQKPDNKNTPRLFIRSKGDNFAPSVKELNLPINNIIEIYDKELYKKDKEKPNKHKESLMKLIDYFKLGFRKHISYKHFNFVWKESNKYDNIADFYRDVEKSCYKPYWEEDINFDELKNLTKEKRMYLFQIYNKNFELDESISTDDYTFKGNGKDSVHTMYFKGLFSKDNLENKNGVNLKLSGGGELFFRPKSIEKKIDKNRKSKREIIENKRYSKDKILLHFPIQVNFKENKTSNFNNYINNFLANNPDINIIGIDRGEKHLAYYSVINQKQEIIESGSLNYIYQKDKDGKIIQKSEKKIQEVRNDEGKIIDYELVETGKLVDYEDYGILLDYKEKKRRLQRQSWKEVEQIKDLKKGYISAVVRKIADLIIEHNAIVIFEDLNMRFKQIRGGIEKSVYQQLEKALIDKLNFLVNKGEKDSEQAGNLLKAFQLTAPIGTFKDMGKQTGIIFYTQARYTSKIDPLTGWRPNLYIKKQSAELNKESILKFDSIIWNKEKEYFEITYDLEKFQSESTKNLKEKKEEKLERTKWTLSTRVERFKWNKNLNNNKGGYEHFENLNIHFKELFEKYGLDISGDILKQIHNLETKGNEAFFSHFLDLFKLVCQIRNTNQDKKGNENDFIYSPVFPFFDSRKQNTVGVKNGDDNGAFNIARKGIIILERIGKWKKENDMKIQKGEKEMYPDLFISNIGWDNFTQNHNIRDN
Assay: cell_activity; PAM not stated; E. coli depletion, 30 C
Method in brief: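 E. coli carrying arabinose-induced (0.2%) BMC nuclease, grown at 30° C., made electrocompetent and electroporated with 50-100 ng plasmid carrying gRNA against malQ. Transformants plated on selective M9-glucose agar with kanamycin/ampicillin (± nourseothricin), and growth scored after 48 h at 30° C.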

B1: malQ gRNA (BMC stem-loop + 24 nt spacer) ; malQ protospacer (ssRNA ; dsDNA)
RNA: GAUUUCUACUAUUGUAGAUGUGGCGGUACGUUGAUGCAUCGCG
DNA 1: GTGGCGGTACGTTGATGCATCGCG
DNA 2: CGCGATGCATCAACGTACCGCCAC
Question: Which activity does the source give for B1 here?
Answer: > 99.9 % colony reduction
